How the values were obtained:
[1] = target: Copalyl diphosphate synthase from Penicillium fellutanum (PfCPS), full-length wild type (Penicillium fellutanum); test: SEC
[2] = target: Copalyl diphosphate synthase from Penicillium fellutanum (PfCPS), full-length wild type (Penicillium fellutanum); test: cryo-EM structure

stoichiometry N [1]: 6
stoichiometry N [2]: 6
Substance: Copalyl diphosphate synthase from Penicillium fellutanum (PfCPS), full-length wild type (enzyme)

Reference: publication PMC10939776
